The supplement of paper PMC9170038

Experiments:
MS2 coat protein [1] = assay: apparent KD of MS2 coat protein, switch ON state; designed switch direction (-1 OFF switch, 1 ON switch): -1; higher = weaker reporter binding; conditions: FMN input: 0 or 200 uM; Eterna round: R93 (includes R88 designs)
Outline: (§1)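 SNAP-549-labelled MS2 coat protein was titrated onto designed RNA switches that had been transcribed on-chip from Illumina sequencing clusters. Amounts doubled from 0.7 or 1.5 nM to 3 µM in 100 mM Tris-HCl pH 7.5, 80 mM KCl, 4 mM MgCl2, with constant ligand or without. Apparent KD is the median per design of normalised cluster binding-curve fits.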

MS2 coat protein [2] = assay: apparent KD of MS2 coat protein, switch OFF state (with FMN for OFF switches, without FMN for ON switches); designed switch direction (-1 OFF switch, 1 ON switch): -1; higher = weaker reporter binding; conditions: FMN input: 0 or 200 uM; Eterna round: R93 (includes R88 designs)
Outline: as §1

Sequence | apparent KD of MS2 coat protein (MS2 coat protein [1]) | apparent KD of MS2 coat protein (MS2 coat protein [2])
AACCAACAUGAGGAUCACCCAUGUCAGGAUAUGCGUACAACAUACAACAUACAUCAAAGCAGAAGGGACACAAA [Amethyst 84] | 0.0202 µM | 0.0236 µM
AACGAACAUGAGGAUCACCCAUGUCAGGAUAUGCAAAGAACGAUCGAACGAACGAUAAGCAGAAGGGACAGAGA [Amethyst 97] | 0.0277 µM | 0.0404 µM
AACUGACAUGAGGAUCACCCAUGUCAGGAUAUGACAUCGAGAAAAAAAAAAAUCGUUGUCAGAAGGGACAUGAA [Design 78: Sub-opt T] | 0.0124 µM | 0.0136 µM
AAGAAACAUGAGGAUCACCCAUGUAAGGAUAUCUAAAAGAAAAGAAAAGAAAGAAGAAGGAGAAGGUACAAAGG [Sehertawy Intef I] | 0.0261 µM | 0.03 µM
AAGAAACAUGAGGAUCACCCAUGUGAGGAUAUCGAAGAAAGAAAGAAAGAAAGAAGAACGAGAAGGCACAAAGG [Publius Octavius] | 0.0427 µM | 0.0593 µM
AAGAAACAUGAGGAUCACCCAUGUGAGGAUAUUGAAAAGAAAAGAAAAGAAAGAAGAACAAGAAGGCACAAAGG [Merenhor] | 0.0394 µM | 0.0378 µM
AAGAAAGCAGGAUAUACAAAAUAAAAGAAAAGAAAGAAAGAACAUGAGGAUCACCCAUGUAGAAGGGCUAAGAA [Khahotepre Sobekhotep VI] | 0.038 µM | 0.0323 µM
AAGAAAGCAGGAUAUACAUGAGGAUCACCCAUGUAAAAGAAAGAAGGGAAAGAGAAAAGUAGAAGGGCUAAGAA [Wehemibre Necho II] | 0.0209 µM | 0.0387 µM
AAGAACACAGGAUAUACAUGAGGAUCACCCAUGUAAAAGAAAGAGGGAAAAGAGAAAAGUAGAAGGGUGAAGAA [Hugronaphor] | 0.0331 µM | 0.0314 µM
AAGAACGCAGGAUAUACAUGAGGAUCACCCAUGUAAAAGAAAGAAAAGGGAAAGAAAAGUAGAAGGGCGAAGAA [Aakheperkare Thutmose I] | 0.0339 µM | 0.0331 µM
AAGAACGCAGGAUAUACUAAAGAAAUGAAAAGAAAUAAAGAACAUGAGGAUCACCCAUGUAGAAGGGCGAAGAA [Merdjefare] | 0.0394 µM | 0.0321 µM
AAGAACGUAGGAUAUACAUGAAAGAAAGAAAAGAAAAGAAAACAUGAGGAUCACCCAUGUAGAAGGACGUAGAA [EteRNA is fun!] | 0.02 µM | 0.0221 µM
AAGAAGAGAGGAUAUACAUGAGGAUCACCCAUGUAAAAGAAAGAGGGAAAAGAGAAAAGUAGAAGGCUCAAGAA [Arsinoe II] | 0.0239 µM | 0.037 µM
AAGAAGCAAGGAUAUACAUGAGGAUCACCCAUGUAAAAGAAAGAAGGGAAAGAGAAAAGUAGAAGGUGCAAGAA [Shepsesre Tefnakhte] | 0.0257 µM | 0.0301 µM
AAGAAGCUAGGAUAUACAUGAGGAUCACCCAUGUAAAAGAAAGAAAAGGGAAAGAAAAGUAGAAGGAGCAAGAA [Menpehtire Ramesses I] | 0.0287 µM | 0.0356 µM
AAGAAGGAAGGAUAUACAUGAGGAUCACCCAUGUAAAAGAAAGAAAAGGGAAAGAAAAGUAGAAGGUCCAAGAA [Djeserkheperure-setpenre Horemheb] | 0.0304 µM | 0.0416 µM
AAGAAGGGAGGAUAUACAUAAAAGAAAGAAAAGAAAAGAAAACAUGAGGAUCACCCAUGUAGAAGGCCCAAGAA [EteRNA is fun!] | 0.0287 µM | 0.0293 µM
